B1: NRC3_wobSeed53_DR2_T12C_o1 (dsDNA)
DNA 1: GCCCTTACGGGCCACGAGGTTATAGCACGACGAGCGGCGATTGACAGCGTAGAATGAAGG
DNA 2: CCTTCATTCTACGCTGTCAATCGCCGCTCGTCGTGCTATAACCTCGTGGCCCGTAAGGGC
B2: NRC3_wobSeed3_DR0_A9G_o1 (dsDNA)
DNA 1: GCGCTCGGGGGACAAGGTCAGAGCTTTGTCCGTAGAGCGATTGACAGCGTAGAATGAAGG
DNA 2: CCTTCATTCTACGCTGTCAATCGCTCTACGGACAAAGCTCTGACCTTGTCCCCCGAGCGC
B3: NRC3_wobSeed72_DR2_o1 (dsDNA)
DNA 1: GCTCGAGTAGGTTACGGGGGCATTCAGGGATGAAGAGCGATTGACAGCGTAGAATGAAGG
DNA 2: CCTTCATTCTACGCTGTCAATCGCTCTTCATCCCTGAATGCCCCCGTAACCTACTCGAGC
B4: NRC3_wobSeed72_DR2_G17C_o1 (dsDNA)
DNA 1: B3 DNA 1 with G17C
DNA 2: B3 DNA 2 with C44G
B5: NRC3_wobSeed72_DR2_T24C_o1 (dsDNA)
DNA 1: B3 DNA 1 with T24C
DNA 2: B3 DNA 2 with A37G
B6: NRC3_wobSeed72_DR2_G16T_o1 (dsDNA)
DNA 1: B3 DNA 1 with G16T
DNA 2: B3 DNA 2 with C45A
B7: NRC3_wobSeed2_DR0_C19A_o1 (dsDNA)
DNA 1: GCCCTAGTTGGTCAAGGTAACACACGCTATAGGTACGCGATTGACAGCGTAGAATGAAGG
DNA 2: CCTTCATTCTACGCTGTCAATCGCGTACCTATAGCGTGTGTTACCTTGACCAACTAGGGC
B8: NRC3_random_hg19_42_o1 (dsDNA)
DNA 1: GCTTTGTGTGGGCTGTCATTGGATGCTCTGGTCATGGCGATTGACAGCGTAGAATGAAGG
DNA 2: CCTTCATTCTACGCTGTCAATCGCCATGACCAGAGCATCCAATGACAGCCCACACAAAGC
B9: NRC3_random_hg19_343_o1 (dsDNA)
DNA 1: GCCCTGGAGTGTCACTTAGCCACATTCTATTGGCCAGCGATTGACAGCGTAGAATGAAGG
DNA 2: CCTTCATTCTACGCTGTCAATCGCTGGCCAATAGAATGTGGCTAAGTGACACTCCAGGGC
B10: NRC3_wobSeed104_DR4_G7A_o1 (dsDNA)
DNA 1: GCTCTTATAGATCAATAGAGGTTAAGAAAGTGCGCTGCGATTGACAGCGTAGAATGAAGG
DNA 2: CCTTCATTCTACGCTGTCAATCGCAGCGCACTTTCTTAACCTCTATTGATCTATAAGAGC
B11: NRC3_wobSeed93_DR3_A14T_o1 (dsDNA)
DNA 1: GCAGTCAAAGTTCTTCTAGGTAACGTAAGATATGCTGCGATTGACAGCGTAGAATGAAGG
DNA 2: CCTTCATTCTACGCTGTCAATCGCAGCATATCTTACGTTACCTAGAAGAACTTTGACTGC
B12: NRC3_wobSeed66_DR2_A14G_o1 (dsDNA)
DNA 1: GCAATACAGGGTCGCTAGGCCAGAGTAGGTACGAATGCGATTGACAGCGTAGAATGAAGG
DNA 2: CCTTCATTCTACGCTGTCAATCGCATTCGTACCTACTCTGGCCTAGCGACCCTGTATTGC
B13: NRC3_wobSeed117_DR4_A9C_o1 (dsDNA)
DNA 1: GCCGTCAACGTTCAACTAAGGTAACGTAAAGCACGCGCGATTGACAGCGTAGAATGAAGG
DNA 2: CCTTCATTCTACGCTGTCAATCGCGCGTGCTTTACGTTACCTTAGTTGAACGTTGACGGC
B14: NRC3_wobSeed120_DR4_A14C_o1 (dsDNA)
DNA 1: GCCCGAGTAGGTTCCGAGGGGGCATTCAGTGCGAATGCGATTGACAGCGTAGAATGAAGG
DNA 2: CCTTCATTCTACGCTGTCAATCGCATTCGCACTGAATGCCCCCTCGGAACCTACTCGGGC
B15: NRC3_wobSeed120_DR4_G10A_o1 (dsDNA)
DNA 1: B14 DNA 1 with G10A, C14A
DNA 2: B14 DNA 2 with G47T, C51T
B16: NRC3_random_hg19_170_o1 (dsDNA)
DNA 1: GCCTTGCATTGTGGTTTGGATTTGCATTTCCCTAAAGCGATTGACAGCGTAGAATGAAGG
DNA 2: CCTTCATTCTACGCTGTCAATCGCTTTAGGGAAATGCAAATCCAAACCACAATGCAAGGC
B17: NRC3_wobSeed138_DR5_A18T_o1 (dsDNA)
DNA 1: GCGATACAGGGTCAGCTTGAGGCCAGAGTATGGAAAGCGATTGACAGCGTAGAATGAAGG
DNA 2: CCTTCATTCTACGCTGTCAATCGCTTTCCATACTCTGGCCTCAAGCTGACCCTGTATCGC
B18: NRC3_wobSeed28_DR1_A21T_o1 (dsDNA)
DNA 1: GCCCTACTGGGCCAAAGGTCTTTGATTCCAATGCTCGCGATTGACAGCGTAGAATGAAGG
DNA 2: CCTTCATTCTACGCTGTCAATCGCGAGCATTGGAATCAAAGACCTTTGGCCCAGTAGGGC
B19: NRC3_wobSeed113_DR4_G20C_o1 (dsDNA)
DNA 1: GCATATGTAGGTTAGCTGGCGTCATTCAGACTAGGCGCGATTGACAGCGTAGAATGAAGG
DNA 2: CCTTCATTCTACGCTGTCAATCGCGCCTAGTCTGAATGACGCCAGCTAACCTACATATGC
B20: NRC3_wobSeed137_DR5_A29T_o1 (dsDNA)
DNA 1: GCATATGTAGGTTACATCCGGGTCATTCTGGCTATGGCGATTGACAGCGTAGAATGAAGG
DNA 2: CCTTCATTCTACGCTGTCAATCGCCATAGCCAGAATGACCCGGATGTAACCTACATATGC
B21: NRC3_wobSeed137_DR5_G21A_o1 (dsDNA)
DNA 1: B20 DNA 1 with G21A, T29A
DNA 2: B20 DNA 2 with A32T, C40T
B22: NRC3_wobSeed29_DR1_C13G_o1 (dsDNA)
DNA 1: GCGCTTACGGGTGAAAGGTTATAGCATGAATAGAATGCGATTGACAGCGTAGAATGAAGG
DNA 2: CCTTCATTCTACGCTGTCAATCGCATTCTATTCATGCTATAACCTTTCACCCGTAAGCGC
B23: NRC3_wobSeed18_DR0_T12G_o1 (dsDNA)
DNA 1: GCGATACAGGGGCAAGGCCAGAGTACGCGTATTGATGCGATTGACAGCGTAGAATGAAGG
DNA 2: CCTTCATTCTACGCTGTCAATCGCATCAATACGCGTACTCTGGCCTTGCCCCTGTATCGC
B24: NRC3_wobSeed130_DR5_A30G_o1 (dsDNA)
DNA 1: GCCTCGAAAGGTCGTGCTCAGGTGAGTATGCCAAACGCGATTGACAGCGTAGAATGAAGG
DNA 2: CCTTCATTCTACGCTGTCAATCGCGTTTGGCATACTCACCTGAGCACGACCTTTCGAGGC
B25: NRC3_random_hg19_208_o1 (dsDNA)
DNA 1: GCAAGAGAGAGACACAATGGCTAAAGAAGGAAGAGTGCGATTGACAGCGTAGAATGAAGG
DNA 2: CCTTCATTCTACGCTGTCAATCGCACTCTTCCTTCTTTAGCCATTGTGTCTCTCTCTTGC
B26: NRC3_wobSeed65_DR2_T12A_o1 (dsDNA)
DNA 1: GCATATGTAGGATATCGGGTCATTCAGTTTGCGCATGCGATTGACAGCGTAGAATGAAGG
DNA 2: CCTTCATTCTACGCTGTCAATCGCATGCGCAAACTGAATGACCCGATATCCTACATATGC
B27: NRC3_wobSeed23_DR0_A9G_o1 (dsDNA)
DNA 1: GCGGAACGGGGGCAAGTTGATAGCAGAGTTTGATGGGCGATTGACAGCGTAGAATGAAGG
DNA 2: CCTTCATTCTACGCTGTCAATCGCCCATCAAACTCTGCTATCAACTTGCCCCCGTTCCGC
B28: NRC3_wobSeed58_DR2_T12G_o1 (dsDNA)
DNA 1: GCATCGAAAGGGCGTGAGGTGAGTATACAGAAAGGCGCGATTGACAGCGTAGAATGAAGG
DNA 2: CCTTCATTCTACGCTGTCAATCGCGCCTTTCTGTATACTCACCTCACGCCCTTTCGATGC
B29: NRC3_wobSeed34_DR1_A24C_o1 (dsDNA)
DNA 1: GCATCGAAAGGTCGAAGGTGAGTCTACCCACCCGAAGCGATTGACAGCGTAGAATGAAGG
DNA 2: CCTTCATTCTACGCTGTCAATCGCTTCGGGTGGGTAGACTCACCTTCGACCTTTCGATGC
B30: NRC3_wobSeed34_DR1_G22C_o1 (dsDNA)
DNA 1: B29 DNA 1 with G22C, C24A
DNA 2: B29 DNA 2 with G37T, C39G
B31: NRC3_wobSeed99_DR4_C23G_o1 (dsDNA)
DNA 1: GCTCTCGGAGGACACGAAAGGTGAGAGCTCGACATCGCGATTGACAGCGTAGAATGAAGG
DNA 2: CCTTCATTCTACGCTGTCAATCGCGATGTCGAGCTCTCACCTTTCGTGTCCTCCGAGAGC

Our source for the binding signal values is publication PMC6555819, “Comprehensive study of nuclear receptor DNA binding provides a revised framework for understanding receptor specificity”.

Numbering of substitutions follows the chain as printed.

For the data set, the target named is PXR:RXRa (Homo sapiens, UniProt O75469;P19793 full;full). Briefly: no ligand; PBM; 270 nM : 90 nM RXRa; PBS pH 7.4, 2% milk, 0.02% Triton X-100, 1 mM DTT, BSA, 0.4 mg/ml salmon testes DNA. Particulars: tags: His kept;His cleaved; copies: 1;1; label: surface-attached array probe. Summed up: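 Each nuclear receptor dimer, without ligand, was incubated for 1 h on custom Agilent 4×180K protein-binding microarrays. Binding was detected with antibodies against each partner (one per run), and scanned fluorescence was regression-normalized. The binding z-scores are referenced to random human genomic background probes.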
Chain of PXR:RXRa (O75469 whole entry, chain 1 of 2): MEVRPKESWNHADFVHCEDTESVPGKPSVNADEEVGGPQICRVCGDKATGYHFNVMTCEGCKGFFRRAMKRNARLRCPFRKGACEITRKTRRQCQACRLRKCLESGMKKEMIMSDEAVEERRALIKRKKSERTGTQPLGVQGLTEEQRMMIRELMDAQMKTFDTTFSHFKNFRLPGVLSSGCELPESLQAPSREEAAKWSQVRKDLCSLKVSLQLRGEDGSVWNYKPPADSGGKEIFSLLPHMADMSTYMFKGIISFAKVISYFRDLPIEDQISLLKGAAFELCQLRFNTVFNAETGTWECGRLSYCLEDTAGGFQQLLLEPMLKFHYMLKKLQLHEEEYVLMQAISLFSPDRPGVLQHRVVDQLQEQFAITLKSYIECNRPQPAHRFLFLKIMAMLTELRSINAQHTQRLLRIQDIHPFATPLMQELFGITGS
Chain of PXR:RXRa (P19793 whole entry, chain 2 of 2): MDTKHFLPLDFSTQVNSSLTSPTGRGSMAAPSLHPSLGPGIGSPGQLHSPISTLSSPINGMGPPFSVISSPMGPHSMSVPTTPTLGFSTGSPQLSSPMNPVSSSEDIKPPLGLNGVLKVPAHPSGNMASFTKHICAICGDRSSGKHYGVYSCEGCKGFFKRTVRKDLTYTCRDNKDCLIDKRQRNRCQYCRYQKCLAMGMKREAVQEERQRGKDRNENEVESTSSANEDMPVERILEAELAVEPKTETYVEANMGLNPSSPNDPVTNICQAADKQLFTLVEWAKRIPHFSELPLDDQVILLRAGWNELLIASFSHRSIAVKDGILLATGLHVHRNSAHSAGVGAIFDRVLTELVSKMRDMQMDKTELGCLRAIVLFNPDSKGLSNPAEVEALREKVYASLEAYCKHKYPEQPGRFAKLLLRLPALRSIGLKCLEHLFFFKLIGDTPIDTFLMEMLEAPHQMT
For B1, the binding signal is 0.44 PBM z-score against 500 random probes.

For B2, the binding signal is 3.22 PBM z-score against 500 random probes.

With B3, the binding signal is 3.16 PBM z-score against 500 random probes.

Take B4: the binding signal was 0.24 PBM z-score against 500 random probes.

For B5, the binding signal was 3.05 PBM z-score against 500 random probes.

For the molecule B6, the binding signal was 0.31 PBM z-score against 500 random probes.

Turning to B7, the binding signal is 0.48 PBM z-score against 500 random probes.

As for B8, the binding signal is 0.44 PBM z-score against 500 random probes.

As for B9, the binding signal was 0.14 PBM z-score against 500 random probes.

Take B10: the binding signal was 3.11 PBM z-score against 500 random probes.

Regarding B11, the binding signal was 0.13 PBM z-score against 500 random probes.

Take B12: the binding signal is 0.28 PBM z-score against 500 random probes.

For B13, the binding signal is 0.48 PBM z-score against 500 random probes.

In the case of B14, the binding signal was 3.13 PBM z-score against 500 random probes.

B15: the binding signal was 3.08 PBM z-score against 500 random probes.

In the case of B16, the binding signal was 0.34 PBM z-score against 500 random probes.

On to B17, for which the binding signal is 3.18 PBM z-score against 500 random probes.

Take B18: the binding signal is -0.05 PBM z-score against 500 random probes.

Turning to B19, the binding signal was -0.13 PBM z-score against 500 random probes.

Take B20: the binding signal is 3.07 PBM z-score against 500 random probes.

As to B21, the binding signal is 0.38 PBM z-score against 500 random probes.

Consider B22, for which the binding signal is 3.2 PBM z-score against 500 random probes.

B23: the binding signal is -0.01 PBM z-score against 500 random probes.

Take B24: the binding signal is 3.26 PBM z-score against 500 random probes.

On to B25, for which the binding signal is 0.26 PBM z-score against 500 random probes.

As for B26, the binding signal was 3.03 PBM z-score against 500 random probes.

For the molecule B27, the binding signal is 3.23 PBM z-score against 500 random probes.

Turning to B28, the binding signal is 0.34 PBM z-score against 500 random probes.

As for B29, the binding signal was 3.17 PBM z-score against 500 random probes.

On to B30, for which the binding signal is 3.06 PBM z-score against 500 random probes.

Turning to B31, the binding signal was 0.4 PBM z-score against 500 random probes.
